Measured values: PMC10720983

Biological target: DtpM (dithiolopyrrolone methyltransferase) (Saccharothrix algeriensis)
Assay: SEC-MALS

## DtpM (dithiolopyrrolone methyltransferase) (enzyme)
  stoichiometry N: 2
